Target: α-NAC subunit of C. elegans NAC (C. elegans)
Test: cross-linking; BS3 (d0/d4) at 20- or 50-fold molar excess, 20 uM NAC alone or + 20 uM substrate, 10 mM sodium phosphate pH 7.0, room temperature 1 h; SDS-PAGE, in-gel tryptic digest, LC-MS/MS

B1: β-NAC subunit of C. elegans NAC (natural protein)
chain: MDSKAIAERIKKLQAQQEHVRIGGKGTPRRKKKVIHKTAAADDKKLQSNLKKLSVTNIPGIEEVNMIKDDGTVIHFNNPKVQTSVPANTFSVTGSADNKQITEMLPGILNQLGPESLTHLKKLANNVTKLGPDGKGEDEDVPELVGDFDAASKNETKADEQ
- stoichiometry N: 1

Source: PMC5986199
